Series [1] concerns the target T1, GbpC (glucan-binding protein C), extracellular fragment (Streptococcus mutans, UniProt Q8DTF1 111-522).
T1 sequence: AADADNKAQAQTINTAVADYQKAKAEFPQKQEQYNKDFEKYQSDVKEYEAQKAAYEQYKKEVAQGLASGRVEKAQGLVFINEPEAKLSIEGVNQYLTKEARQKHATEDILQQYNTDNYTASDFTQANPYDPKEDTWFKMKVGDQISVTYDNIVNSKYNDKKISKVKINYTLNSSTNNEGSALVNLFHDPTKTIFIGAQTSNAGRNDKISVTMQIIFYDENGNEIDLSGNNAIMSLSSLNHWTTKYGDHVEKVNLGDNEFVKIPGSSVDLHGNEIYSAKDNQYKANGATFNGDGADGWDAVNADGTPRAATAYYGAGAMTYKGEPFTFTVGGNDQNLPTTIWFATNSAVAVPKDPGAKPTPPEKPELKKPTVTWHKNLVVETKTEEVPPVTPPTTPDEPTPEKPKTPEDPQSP
Kind of series: AlphaScreen.

The target in series [2] is T1, GbpC (glucan-binding protein C), …. Kind of series: MST.
The target is the same in series [3]. Kind of series: BLI. For orientation: Biolayer interferometry detects binding as a change in optical thickness at a sensor tip.

The Kd is the constant that tells how readily two partners part at equilibrium. Read a high Kd as a looser complex.

B1: A65 (ssDNA)
DNA: AGATACCAATACGCTGCCTTTCCAATTACGCCATGCATCACCCCTAAAATCTGAATACGCCACTGGTAACGACATC
Take B1: the binding result in series [1] was “binds”.

B2: A30 (ssDNA)
DNA: AGATACCAATACGCTGCCTTCTTGAAAAAGGGTAGCGCAGGCCGCTAATGACATAACTGCCACTGGTAACGACATC
For B2, the binding result in series [1] was “binds”.

B3: A96 truncated (ssDNA)
DNA: CCGCCGGTCCCGAGCTACAACACTTTACGCCCCCCTCCC
As to B3, in series [2], binding was put at a Kd of 66.9 µM.

B4: A39 truncated (ssDNA)
DNA: TAGCCCCTACCCTGTTGCTCCCCCTCGCCCCTCTCACCCC
As to B4, in series [2], binding was put at a Kd of 19.6 µM.

B5: A96 (flanked) (ssDNA)
DNA: AGATACCAATACGCTGCCCCGCCGGTCCCGAGCTACAACACTTTACGCCCCCCTCCCCGCCACTGGTAACGACATC
Regarding B5, the values for the Kd in series [2] and in series [3] were 8.5 µM and 0.4 µM, respectively.

B6: A39 (flanked) (ssDNA)
DNA: AGATACCAATACGCTGCCTAGCCCCTACCCTGTTGCTCCCCCTCGCCCCTCTCACCCCGCCACTGGTAACGACATC
In series [3], B6 returned a dissociation constant Kd of 5.7 µM.

For the origin of these results see paper doi:10.1101/2024.08.23.608024.
